Tests used:
[1] = target: human TNFα (recombinant, soluble) (human) (UniProt P01375); experiment: cell-based or functional assay
[2] = target: human OX40L (recombinant, soluble) (human) (UniProt P23510); experiment: cell-based or functional assay
Sequence of UniProt P23510 (P23510 51-183 limits assumed): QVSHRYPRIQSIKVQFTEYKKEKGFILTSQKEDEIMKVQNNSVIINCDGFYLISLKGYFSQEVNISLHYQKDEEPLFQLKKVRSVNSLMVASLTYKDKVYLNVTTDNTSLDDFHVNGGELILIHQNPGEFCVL

Sequence of UniProt P01375 (P01375 77-233 limits assumed): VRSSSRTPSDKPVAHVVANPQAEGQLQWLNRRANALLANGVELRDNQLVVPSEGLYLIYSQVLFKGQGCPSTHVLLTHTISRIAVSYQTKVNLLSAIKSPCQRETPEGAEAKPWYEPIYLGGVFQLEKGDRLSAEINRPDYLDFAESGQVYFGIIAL

% inhibition, Jurkat OX40/TNF-NFκB reporter assay, combined hTNFα+OX40L stimulus [1] | IC50 (pM), Jurkat OX40/TNF-NFκB reporter assay, combined hTNFα+OX40L stimulus [1] | % inhibition, Jurkat OX40/TNF-NFκB reporter assay, combined hTNFα+OX40L stimulus [2] | IC50 (pM), Jurkat OX40/TNF-NFκB reporter assay, combined hTNFα+OX40L stimulus [2] | Substance
66% | 387 pM | – | – | monospecific anti-TNFα VHH ATN-103
– | – | 68% | 3060 pM | monospecific anti-OX40L VHH ALX-0632

From patent US20210188986A1
